Measurements from patent US20190060453A1 (ONCOMED PHARMACEUTICALS, published 2019).
Changes are numbered by the printed parent chain. Blank lines part the entries; values can stand above or below the binder they belong to.

Experiments:
[1] = molecular target: T1, DLL4 antigen protein (recombinant fragment of the extracellular domain of human DLL4, amino acids 1-522, Fc- … (human, UniProt Q9NR61 27-522)); test: Biacore; antibody purified by protein A; DLL4 form and format not stated
T1 construct: also called Human DLL4 Antigen; not shown: human Fc-tag or histidine-tag

[2] = molecular target: T1, DLL4 antigen protein (recombinant …); test: ELISA of conditioned medium, HEK 293 cells cotransfected with the murine 21M18 light chain
Protocol: The functionality of each candidate variant humanized heavy and light chain was tested by cotransfection into mammalian cells.

[3] = molecular target: T1, DLL4 antigen protein (recombinant …); test: ELISA of conditioned medium, HEK293 cells
Description: These heavy chains were cotransfected into HEK293 cells with L2, and conditioned media was again assayed.

murine DLL4-Fc = molecular target: T2, murine DLL4-Fc (murine, UniProt Q9JI71 27-525, limits assumed); test: FACS-based assay with human or murine DLL4-Fc (FIG. 2B)
T2 construct: also called m-DLL4; not shown: Fc
Description: Binding was detected by fluorescently labeled anti-Fc and analyzed by FACS, with high fluorescence intensity indicative of binding between DLL4 and Notch1 expressing cells.

[4] = molecular target: T3, human DLL4 aa 1-251 fused to Fc (human, UniProt Q9NR61 27-251); test: ELISA, Fc fusion captured by anti-human Fc
T3 construct: Predicted signal peptide 1-26 left out; also called aa 1-251 (printed as 1-251); not shown: Fc protein
Protocol: (§1) To identify antibodies that recognize specific regions of the DLL4 extracellular domain, epitope mapping was performed. Mammalian expression plasmid vectors comprising a CMV promoter upstream of polynucleotides that encode a nested series of deletion fragments of the extracellular domain of DLL4 fused to Fc protein were generated using standard recombinant DNA technology. Additional constructs that encoded fragments of DLL4 that were chimera of human and mouse DLL4 fused to Fc protein were also generated using standard recombinant DNA technology. A further series of DLL4-fc fusion proteins were designed that included specific amino acid substitutions. These recombinant fusion proteins were expressed in transiently transfected HEK 293 cells from which conditioned medium was collected twenty-four to forty-eight hours post-transfection for ELISA. The DLL4 fusion protein fragments were captured on plates coated with anti-human Fc antibodies. Anti-DLL4 antibodies were then allowed to interact with the bound DLL4 fragments and binding was measured by subsequent incubation with HRP conjugated anti-mouse antibody and detection of HRP activity (FIG. 3A). […] Additionally, anti-DLL4 mAbs were examined for binding to DLL4 fusion protein fragments by western blot analysis (FIG. 3B).

[5] = molecular target: T4, human DLL4 aa 1-154 fused to Fc (human, UniProt Q9NR61 27-154); test: ELISA, Fc fusion captured by anti-human Fc
T4 construct: predicted signal peptide 1-26 left out; also called h-DLL4 dom1-2; not shown: Fc protein
Protocol: as §1

[6] = molecular target: T5, human DLL4 aa 1-96 fused to Fc (human, UniProt Q9NR61 27-96); test: ELISA, Fc fusion captured by anti-human Fc
T5 construct: Printed as aa 1-96; not shown: Fc protein (human Fc by the capture and detection reagents)
Protocol: as §1

[7] = molecular target: T6, human DLL4 aa 1-283 fused to Fc (human, UniProt Q9NR61 27-283); test: ELISA, Fc fusion captured by anti-human Fc
T6 construct: Predicted signal peptide 1-26 left out; not shown: Fc protein
Protocol: as §1

[8] = molecular target: T7, human DLL4 aa 1-217 fused to Fc (human, UniProt Q9NR61 27-217); test: ELISA, Fc fusion captured by anti-human Fc
T7 construct: predicted signal peptide 1-26 left out; also called hDLL4dom1-3; not shown: Fc protein
Protocol: as §1

[9] = molecular target: T8, human DLL4 aa 1-323 fused to Fc (human, UniProt Q9NR61 27-323); test: ELISA, Fc fusion captured by anti-human Fc
T8 construct: Predicted signal peptide 1-26 left out; also called aa 1-323 (printed as 1-323); not shown: Fc protein
Protocol: as §1

[10] = molecular target: T9, human DLL4, full-length, on the surface of transfected cells (human, UniProt Q9NR61 27-685); test: FACS on HEK 293 cells co-transfected with full-length DLL4 and GFP
T9 construct: whole, on cells; HEK 293 cells (transient with GFP, or stably transduced) and 3T3 cells overexpressing human DLL4; also called native cell-surface DLL4 protein; Delta-like ligand 4

T2 sequence (Q9JI71 27-525 limits assumed): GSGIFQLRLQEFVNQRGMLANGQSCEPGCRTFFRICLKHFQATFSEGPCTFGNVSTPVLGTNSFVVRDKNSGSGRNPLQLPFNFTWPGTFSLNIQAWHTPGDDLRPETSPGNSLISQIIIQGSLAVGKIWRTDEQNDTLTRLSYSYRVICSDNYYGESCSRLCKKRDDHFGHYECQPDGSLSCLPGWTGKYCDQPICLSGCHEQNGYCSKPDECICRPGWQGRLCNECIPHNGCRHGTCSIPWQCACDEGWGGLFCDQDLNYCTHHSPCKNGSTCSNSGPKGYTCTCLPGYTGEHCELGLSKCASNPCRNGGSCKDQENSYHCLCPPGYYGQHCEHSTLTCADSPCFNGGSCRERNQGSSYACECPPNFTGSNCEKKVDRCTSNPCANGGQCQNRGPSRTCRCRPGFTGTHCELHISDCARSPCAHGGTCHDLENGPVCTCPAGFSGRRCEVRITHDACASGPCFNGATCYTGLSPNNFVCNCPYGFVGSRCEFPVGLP

B1: humanized 21M18 variant H2L2 (antibody, V domains shown)
VH: QVQLVQSGAEVKKPGASVKISCKASGYSFTAYYIHWVKQAPGQGLEWIGYISCYNGATNYNQKFKGRVTFTTDTSTSTAYMELRSLRSDDTAVYYCARDYDYDVGMDYWGQGTLVTVSS
VL: DIVMTQSPDSLAVSLGERATISCRASESVDNYGISFMKWFQQKPGQPPKLLIYAASNQGSGVPDRFSGSGSGTDFTLTISSLQAEDVAVYYCQQSKEVPWTFGGGTKVEIK
notes: also called 21M18 H2L2; 21M18 H2 with 21M18 L2
- Kd [1]: ~0.33 nM

B2: 21M18 H2 humanized heavy chain cotransfected with the murine 21M18 light chain (antibody, V domains shown)
VH: B1 VH
VL: not shown
notes: Tested as conditioned medium of HEK 293 cells; heavy chain on human IgG2 constant region; also called 21M18 H2 (with murine 21M18 light chain)
- binding result [2]: binds

B3: humanized 21M18 H7L2 (antibody, human IgG2, V domains shown)
VH: B1 VH with C53S
VL: B1 VL
notes: Variant of H2 with Kabat 52a Cys changed to Ser; also called H7L2 21M18; ATCC PTA-8425
- binding result [3]: binds

The remaining lines, values ahead:

- binding result [3]: binds
B4: humanized 21M18 H9L2 (antibody, human IgG2, V domains shown)
VH: B1 VH with C53V
VL: B1 VL
notes: Variant of H2 with Kabat 52a Cys changed to Val; also called ATCC PTA-8427

- binding result (murine DLL4-Fc): no binding
- binding result [4]: binds
- binding result [5]: no binding
- binding result [6]: no binding
- binding result [7]: binds
- binding result [8]: binds
- binding result [9]: binds
- binding result [10]: binds
B5: murine monoclonal antibody 21M18 (antibody, V domains shown)
VH: EVQLQQSGPELVKTGASVKISCKASGYSFTAYYIHWVKQSHGKSLEWIGYISCYNGATNYNQKFKGKATFTVDTSSSTAFMQFNSLTSEDSAVYYCARDYDYDVGMDYWGQGTSVTVSS
VL: not shown
notes: Hybridoma-derived mouse antibody; both are alignment entries; also called m21M18; anti-DLL4 21M18
